Experimental data taken from patent publication US20150197568A1 (AstraZeneca / MedImmune, published 2015).

B1: Antibody 2 IgG (antibody, V domains shown)
VH: EVQLVQSGGGLIQPGGSLRLSCAASGFTISSNYMTWVRQAPGKGLEWVSDLYYYAGDTYYADSVRGRFTMSRDISKNTVYLQMDSLRAEDTGVYYCARWADGHYYYIDVWGGGTLVTVSS
VL: DIVMTQSPSTLSASVGDRVTITCRASQGISSWLTWYQQKPGRAPKVLIYKASTLESGVPSRFSGSGSGTDFTLTISSLQPEDFATYYCQQSYSAPWTFGQGTKLELKR
notes: Non-germlined; also called Ab 2
B2: Antibody 2 scFv (scFv, V domains shown)
VH: EVQLVQSGGGLIQPGGSLRLSCAASGFTISSNYMTWVRQAPGKGLEWVSDLYYYAGDTYYADSVRGRFTMSRDISKNTVYLQMDSLRAEDTGVYYCARWADGHYYYIDVWGGGTLVTVSS
VL: DIVMTQSPSTLSASVGDRVTITCRASQGISSWLTWYQQKPGRAPKVLIYKASTLESGVPSRFSGSGSGTDFTLTISSLQPEDFATYYCQQSYSAPWTFGQGTKLELKR
notes: Non-germlined; also called Ab 2; not shown: scFv linker, domain order and any purification tags
B3: Antibody 3 IgG (antibody, V domains shown)
VH: QVQLVQSGGGLIQPGGSLRLSCAASGFTISSNYMVWVRQAPGKGLEWVSDLYYYAGDTYYADSVKGRFTVSRDISKNTVYLQMNSLRAEDTGVYYCARWADDHYYHIDVWGRGTLVTVSS
VL: DIVMTQSPSTLSASVGDRVTITCRASQGISSWLAWYQQKPGRAPKALIYKASTLESGVPSRFSGSGSGTDFTLTISSLQPEDFATYYCQQSYSTPWTFGQGTKLEIKR
notes: Non-germlined; IgG1 with human heavy chain and kappa constant domains; also called Ab 3
B4: Antibody 3 scFv (scFv, V domains shown)
VH: QVQLVQSGGGLIQPGGSLRLSCAASGFTISSNYMVWVRQAPGKGLEWVSDLYYYAGDTYYADSVKGRFTVSRDISKNTVYLQMNSLRAEDTGVYYCARWADDHYYHIDVWGRGTLVTVSS
VL: DIVMTQSPSTLSASVGDRVTITCRASQGISSWLAWYQQKPGRAPKALIYKASTLESGVPSRFSGSGSGTDFTLTISSLQPEDFATYYCQQSYSTPWTFGQGTKLEIKR
notes: Non-germlined; also called Ab 3; not shown: scFv linker, domain order and any purification tags
B5: Antibody 4 IgG (antibody, V domains shown)
VH: EVQLVQSGGGLIQPGGSLRLSCAASGFTVSSNYMTWVRQAPGKGLEWVSDLYYYAGDTYYADSVKGRFTMSRDISKNTVYLQMNSLRAEDTGVYYCARWADGHYYYADVWGRGTLVSVSS
VL: DIVMTQSPSTLSASVGDRVTITCRASQGISSWLAWYQQKPGRAPKVLIYKASTLESGVPSRFSGSGSGTDFTLTISSLQPEDFASYYCQQSYSAPWTFGQGTKLELKR
notes: Non-germlined; IgG1 with human heavy chain and kappa constant domains; also called Ab 4
B6: Antibody 4 scFv (scFv, V domains shown)
VH: EVQLVQSGGGLIQPGGSLRLSCAASGFTVSSNYMTWVRQAPGKGLEWVSDLYYYAGDTYYADSVKGRFTMSRDISKNTVYLQMNSLRAEDTGVYYCARWADGHYYYADVWGRGTLVSVSS
VL: DIVMTQSPSTLSASVGDRVTITCRASQGISSWLAWYQQKPGRAPKVLIYKASTLESGVPSRFSGSGSGTDFTLTISSLQPEDFASYYCQQSYSAPWTFGQGTKLELKR
notes: Non-germlined; also called Ab 4; not shown: scFv linker, domain order and any purification tags
B7: Antibody 5 IgG (antibody, V domains shown)
VH: EVQLVQSGGGLIQPGGSLRLSCAASGFTISSNYMIWVRQAPGKGLEWVSDLYYYAGDTYYADSVKGRFTMSRDISKNTVYLQMNSLRAEDTGVYYCARWADGHYYYADVWGRGTLVSVSS
VL: DIVMTQSPPTLSASVGDRVTITCRASQGISSWLAWYQQKPGRAPKVLIYKASTLESGVPSRFSGSGSGTDFTLTISSLQPEDFASYYCQQSYSAPWTFGQGTKLEIKR
notes: Non-germlined; IgG1 with human heavy chain and kappa constant domains; also called Ab 5
B8: Antibody 5 scFv (scFv, V domains shown)
VH: EVQLVQSGGGLIQPGGSLRLSCAASGFTISSNYMIWVRQAPGKGLEWVSDLYYYAGDTYYADSVKGRFTMSRDISKNTVYLQMNSLRAEDTGVYYCARWADGHYYYADVWGRGTLVSVSS
VL: DIVMTQSPPTLSASVGDRVTITCRASQGISSWLAWYQQKPGRAPKVLIYKASTLESGVPSRFSGSGSGTDFTLTISSLQPEDFASYYCQQSYSAPWTFGQGTKLEIKR
notes: Non-germlined; also called Ab 5; not shown: scFv linker, domain order and any purification tags
B9: Antibody 8 IgG (antibody, V domains shown)
VH: EVQLVQSGGGLIQPGGSLRLSCAASGFTISSNYMIWVRQAPGKGLEWVSDLYYYAGDTYYADSVKGRFTMSRDISKNTVYLQMNSLRAEDTGVYYCARWADDHPRYIDHWGRGTLVTVSS
VL: DIVMTQSPSTLSASVGDRVTITCRASQGISSWLAWYQQKPGRAPKVLIYKASTLESGVPSRFSGSGSGTDFTLTISSLQPEDFATYYCQQSWLGGSFGQGTKLEIKR
B10: Antibody 14 IgG (antibody, V domains shown)
VH: EVQLVQSGGGLIQPGGSLRLSCAASGFTISSNYMIWVRQAPGKGLEWVSDLYYYAGDTYYADSVKGRFTMSRDISKNTVYLQMNSLRAEDTGVYYCARWADDHNYPHIDVWGRGTLVTVSS
VL: DIVMTQSPSTLSASVGDRVTITCRASQGISSWLAWYQQKPGRAPKVLIYKASTLESGVPSRFSGSGSGTDFTLTISSLQPEDFATYYCAAHYAAPWTFGQGTKLEIKR
B11: Antibody 16 IgG (antibody, V domains shown)
VH: EVQLVQSGGGLIQPGGSLRLSCAASGFTISSNYMIWVRQAPGKGLEWVSDLYYYAGDTYYADSVKGRFTMSRDISKNTVYLQMNSLRAEDTGVYYCARWADDHPPYIDLWGRGTLVTVSS
VL: DIVMTQSPSTLSASVGDRVTITCRASQGISSWLAWYQQKPGRAPKVLIYKASTLESGVPSRFSGSGSGTDFTLTISSLQPEDFATYYCQQSWLGGSFGQGTKLEIKR
B12: Antibody 19 IgG (antibody, V domains shown)
VH: EVQLVQSGGGLIQPGGSLRLSCAASGFTISSNYMIWVRQAPGKGLEWVSDLYYYAGDTYYADSVKGRFTMSRDISKNTVYLQMNSLRAEDTGVYYCARWADDHPSHLDIWGRGTLVTVSS
VL: DIVMTQSPSTLSASVGDRVTITCRASQGISSWLAWYQQKPGRAPKVLIYKASTLESGVPSRFSGSGSGTDFTLTISSLQPEDFATYYCQQSWLGGSFGQGTKLEIKR
B13: Antibody 23 IgG (antibody, V domains shown)
VH: EVQLVQSGGGLIQPGGSLRLSCAASGFTISSNYMIWVRQAPGKGLEWVSDLYYYAGDTYYADSVKGRFTMSRDISKNTVYLQMNSLRAEDTGVYYCARWADDHAPWVDLWGRGTLVTVSS
VL: DIVMTQSPSTLSASVGDRVTITCRASQGISSWLAWYQQKPGRAPKVLIYKASTLESGVPSRFSGSGSGTDFTLTISSLQPEDFATYYCQQSWLGGSFGQGTKLEIKR
B14: Antibody 10 (GL) IgG (antibody, V domains shown)
VH: EVQLVESGGGLVQPGGSLRLSCAASGFTISSNYMIWVRQAPGKGLEWVSDLYYYAGDTYYADSVKGRFTMSRDISKNTVYLQMNSLRAEDTAVYYCARWEEEGRGYIDVWGRGTLVTVSS
VL: DIQMTQSPSTLSASVGDRVTITCRASQGISSWLAWYQQKPGKAPKVLIYKASTLESGVPSRFSGSGSGTEFTLTISSLQPDDFATYYCQQSWLGGSFGQGTKLEIKR

Legend:
Mature human IL-6 [1] = target: T1, Mature human IL-6 (human, UniProt P05231 30-212); experiment: cell-based or functional assay
T1 sequence (P05231 30-212): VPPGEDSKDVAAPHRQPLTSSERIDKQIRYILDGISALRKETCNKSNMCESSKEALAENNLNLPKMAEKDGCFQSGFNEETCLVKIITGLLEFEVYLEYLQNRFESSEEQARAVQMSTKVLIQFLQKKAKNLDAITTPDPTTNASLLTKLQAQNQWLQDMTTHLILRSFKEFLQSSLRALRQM

Mature human IL-6 [2] = target: T1, Mature human IL-6; experiment: cell-based or functional assay; remark: listed apart in the source
[3] = target: T2, HIS FLAG tagged human IL-6 (human, UniProt P05231 30-212); experiment: HTRF antibody-ligand competition; competitor biotinylated CAN022D10 IgG; protocol modified for IgG (footnote)
T2 construct: In house; also called HIS FLAG IL-6; HIS/FLAG IL-6
T2 sequence (P05231 other isoform, or with tags, fused parts or gaps): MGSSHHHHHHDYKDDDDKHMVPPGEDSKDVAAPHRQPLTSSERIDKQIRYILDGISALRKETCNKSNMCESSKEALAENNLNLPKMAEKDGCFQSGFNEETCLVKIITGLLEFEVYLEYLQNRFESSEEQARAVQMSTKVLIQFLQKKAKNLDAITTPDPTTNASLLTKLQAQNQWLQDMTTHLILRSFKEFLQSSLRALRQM
Method: (§1) Crude scFv preparations from a representative number of individual clones for the round 3 and round 4 outputs were screened for their inhibitory activity in a CAN022D10 IgG-IL-6 HTRF® binding assay. In this assay, binding of biotinyated antibody and FLAG-tagged IL-6 was detected using cryptate labelled anti-FLAG monoclonal antibody and streptavidin XL^{ent!}™. The detailed assay method is provided in the Materials and Methods section.
(§2) The IC₅₀ value for each scFv was then calculated from data obtained by a testing dilution series of the purified sample in the HTRF antibody-ligand biochemical assay and TF-1 proliferation assay.

[4] = target: T2, HIS FLAG tagged human IL-6; experiment: HTRF antibody-ligand competition; competitor biotinylated CAN022D10 IgG
Method: as §1, §2

Mature human IL-6 [5] = target: T1, Mature human IL-6; experiment: cell-based or functional assay; remark: listed apart in the source
Mature human IL-6 [6] = target: T1, Mature human IL-6; experiment: cell-based or functional assay; remark: listed apart in the source

| Binder | IC50, TF-1 Proliferation Assay (Mature human IL-6 [1]) [nM] | IC50, endogenous IL-6 induced synovial fibroblast VEGF release assay (Mature human IL-6 [2]) [nM] | IC50, TF-1 cell proliferation assay (Mature human IL-6 [5]) [nM] | other results |
| --- | --- | --- | --- | --- |
| B1 | 0.016 | 0.59 |  | IC50 [3]: 0.036 nM |
| B2 | 9.6 |  |  | IC50 [4]: 0.035 nM |
| B3 | 0.05 | 0.38 |  | IC50 [3]: 0.043 nM |
| B4 | 7.3 |  |  | IC50 [4]: 0.022 nM |
| B5 | 0.061 | 0.52 |  | IC50 [3]: 0.043 nM |
| B6 | 13.4 |  |  | IC50 [4]: 0.024 nM |
| B7 | 0.042 | 0.7 |  | IC50 [3]: 0.026 nM |
| B8 | 12.4 |  |  | IC50 [4]: 0.065 nM |
| B9 |  |  | 0.048 |  |
| B10 |  |  | 0.031 |  |
| B11 |  |  | 0.0049 |  |
| B12 |  |  | 0.068 |  |
| B13 |  |  | 0.02 |  |
| B14 |  | 0.55 |  | IC50, IL-6 induced TF-1 cell proliferation assay (Mature human IL-6 [6]): 0.071 nM |
